Measurements from the DeepSol protein solubility set.

Experiment: soluble on expression in E. coli; label from the status in PepcDB or PDB records

| Sequence | soluble on expression in E. coli |
| --- | --- |
| MSLDLLFSECNDEIDNAKLIMKERRFTASYTFAKFSTGSMLLTKDIVGKSGVSIKRLPTELQRKFLFDDVYLDKEIEKVTIEARKSNPYPQISESSLLFKDALDYMEKTSSDYNLWKLSSILFDPVSYPYKTDNDQVKMALLKKERHCRLTSWIVSQIGPEIEEKIRNSSNEIEQIFLYLLLNDVVRASKLAIESKNGHLSVLISYLGSNDPRIRDLAELQLQKWSTGGCSIDKNISKIYKLLSGSPFEGLFSLKELESEFSWLCLLNLTLCYGQIDEYSLESLVQSHLDKFSLPYDDPIGVIFQLYAANENTEKLYKEVRQRTNALDVQFCWYLIQTLRFNGTRVFSKETSDEATFAFAAQLEFAQLHGHSLFVSCFLNDDKAAEDTIKRLVMREITLLRASTNDHILNRLKIPSQLIFNAQALKDRYEGNYLSEVQNLLLGSSYDLAEMAIVTSLGPRLLLSNNPVQNNELKTLREILNEFPDSERDKWSVSINVFEVYLKLVLDNVETQETIDSLISGMKIFYDQYKHCREVAACCNVMSQEIVSKILEKNEGHHHHHH | not soluble |
| MSLDQEQNVSLLVAGDHELLRDAISEILRREGGFSVEVTGSREGVLKQIEERGGFDVILLDLQMPGMSGLDSLREVATSNANGAVAILAGELTRDVVMSAFKAGARGYIPKTLPLRALPIALRLIASGESYVPAWLTNGGGTTQADGPSFDLLPEELQILEEVSDGRTNKQIAFTLNVTEGAIKMKMRAICMKLGAKNRTHAVVIARQHMMLREGHHHHHH | soluble |
| MSLDTIAVVLKQPQQVELSRLSLTAPTDDDIVVDVAWSGVSTGTERLLWSGRMPQFPGMGYPLVPGYESVGEVVEAGSATDLKPGQMVFVPGAKCFGEVRGLFGASASRLVVPAKRVVPLDSKLGERGILIALAATAYHAIAARGATPPDCIVGHGVLGRLLARISIALGNPPPVVWEKNPIRSGGAEGYAVVDPASDERRDYRSIYDVSGDPKLLDTLISRIAATGEIVLAGFYSEPLSFSFPPAFMREARIRVAAEWQPPDIGATKALIESGKLSLDGLITHHQEAASAPDAYRIAFEDPACLKMVLNWRPSEGHHHHHH | soluble |
| MSLDTYTTSEVADLIGVHPNTVRLYEELNLIPKPKRNTNGYRIFNDFHIEQFRFARTALKIEVVQRGLRKDALEIVRTSANRDFDKAISLVNQYLQQLEIEKSNAEEALTIVAQILNGNTPETNKLFLTRKETAEHLNVTIDTLRNWEMNGLLKVKRKQNGYRVYTDEDIKRLKIISALRCANYSLSAILRMLNALSSNPNTNIKTVLDTPKDDDEIISVCDKLITSLKEAEHNAKTMKSHLQIMKKQFSEGHHHHHH | soluble |
| MSLEAEGDEIYEDLMRSEPVSMPPKMTEYDKRCCCLREIQQTEEKYTDTLGSIQQHFLKPLQRFLKPQDIEIIFINIEDLLRVHTHFLKEMKEALGTPGAANLYQVFIKYKERFLVYGRYCSQVESASKHLDRVAAAREDVQMKLEECSQRANNGRFTLRDLLMVPMQRVLKYHLLLQELVKHTQEAMEKENLRLALDAMRDLAQCVNEVKRDEGHHHHHH | soluble |
| MSLEAIRIGEINSYSQIPAFTLPYRNGWQLAVEQINAAGGLLGGRPLEVISRDDGGDPGKAVTAAQELLTRHGVHALAGTFLSHVGLAVSDFARQRKVLFMASEPLTDALTWEKGNRYTYRLRPSTYMQAAMLAAEAAKLPITRWATIAPNYEYGQSAVARFKELLLAARPEVTFVAEQWPALYKLDAGPTVQALQQAEPEGLFNVLFGADLPKFVREGRVRGLFAGRQVVSMLTGEPEYLNPLKDEAPEGWIVTGYPWYDIDTAPHRAFVEAYRARWKEDPFVGSLVGYNTLTAMAVAFEKAGGTESETLVETLKDMAFSTPMGPLSFRASDHQSTMGAWVGRTALRDGKGVMVDWRYVDGGSVLPPPEVVSAWRPAGEGHHHHHH | soluble |
| MSLEDIWHKADELCEKNIKIVIRNLGLNLTISFQCYSHLLQNIPSMLGSIPFQRILSERKNKFDNAIVVSAGPSLTKQLPLLKAYQDKAVVFCADGALSMLEKEGVVPDYVLNIDFEDLPLRFFKNKQNKLSLNILSCATHPSLVHFLDNKSVILRDDPLYQSFNLNDFGYIDTGTHVSHFSYTLALALGFKNIIMIGQDLAFDEEGNSHSKGFDFGEKFEEEHKKYKLKTQAYGGKGEVLTHITWNDYRVKLEYLFACNDQKAKFYNATEGGARINFTEELSFKECCEKLLTKEKPKFELPKSLTKNRSDKLLAKFKEKIQKDQENAKRFLDDEGHHHHHH | soluble |
| MSLEENDDDMVGMVDLKIDLERVVRNAVDDAKEVCTQHYGDCPDVKFIISKDANTMRFPHMSSTITYIVVELMKNAFRATVESHMERNSAGMVDCSNMPPVEVLVNIKKNAKHACICVSDEGLGMTRAQCELAMTYAYTTVKRPVIQHGADEDPEEERNGVSPLAGYGFGLPMSRVYAQAFGGDLVMSTMEGYGTRVYYYIKEGHHHHHH | soluble |
| MSLEGHIVITGATGVIGSEVARRLIKSGREVVVFARSPQSAAAKVPGAADYVRWDSDMAPDGWSSSIDGAYAVIHLAGRPLLETRWTEEHKVACYDSRIKGTRALVAAMASASVKPKVFVSSSAIGYYGSFDRCEETDPLTEKAAPGKDFLAKICFDWEKEARPAETLGTRVVLLRTGIVLSTKGGMLQKMMIPFSYFVGGPVGSGDQCLSWIHLDDEVSIILQALDNADWSGPVNAVAPEPVSMKAFADSLGLVMHRPSLFPVPKLAVQILLGEGADYAVKGQKVSPEFLKERDFHFAWPSLNEALADLVSRGEGHHHHHH | soluble |
| MSLEGRSRLWPKTSAPGAFSRRSPERSWPSRRVQRHFPAKEGREAASAAALRASRRSMVGLTVAVRTGPCDLATRKTKSRWATGSDMTKSSKATSLEILACDAGWRNYHFVKLTTDDGIVGWSEFDEGFGSPGVGAAIQRLSTRIIGQNIFQHERIYAELFAATRPAAGGVVAQALGAIENAMLDAKAKCLGVPCYELLGGKIRDRVRVYWSHCATWRINHPSWYKPPIESLDGVKAMGREVREKKFTALKTNIFSYDDGKPTGWRPGFGSPFAPEINVDRKILRDLRMHLEAIRDGAGPDVDILLDCNFNAKTEGYLKILRTIADLDMFWIEIDSFNPEALGYIRRQSPHPISSCETLLGLREFLPYFHEQAMDVAIIDTPWNGVWQSMKIASAAEAFEVNVAPHNFYGHLCSMMNAHFCAAVPNLRIMEIDIDRLSWDRELFTHEPEIEDGHLIIPDRPGWGTEPNEEALRAHPPKTNGGLLNYGRKSEGHHHHHH | not soluble |
| MSLEISNRLKSISEVMDRCEIAADIGTDHAYLPIYLIKNNLCKRFIASDVNAGPLKKAINNINKYKLEDKIECRLGSGLNVLKLEEVDVVVIAGMGGNLIRDIIEERLDIFKKLKYAVLQPVQNPEILREYLIKRGFNIIEEQLCIDESKYYEIIKVCYDSKIEDKDDVYYEIGDKLIDMKHPLLKEYINYKIRKYDKIYKNISEESLNALSRKNELSIKIRKLKELLSCLEGHHHHHH | soluble |
| MSLEKLAASTEPQGPRPVLGRESVQVPDDQDFRSFRSECEAEVGWNLTYSRAGVSVWVQAVEMDRTLHKIKCRMECCDVPAETLYDVLHDIEYRKKWDSNVIETFDIARLTVNADVGYYSWRCPKPLKNRDVITLRSWLPMGADYIIMNYSVKHPKYPPRKDLVRAVSIQTGYLIQSTGPKSCVITYLAQVDPKGSLPKWVVNKSSQFLAPKAMKKMYKACLKYPEWKEGHHHHHH | not soluble |
| MSLELEAKLAQANEQIKELSKREERVRIARDLHDTLGHTLSLLTLKSQLIQRLAASDPERTKLEAKEMETSSRSALKQVRELVSDMRTVTITEELVNIQHILRAGNITFQYEGADDFSVISPVTQNIISMCMREAVTNIIKHSKATHCAITISQFADKMRIVIRDDGKGAPKEKMFGNGLWGMEERLMLIEGGLTVSDHNGTVVALTIPLIKKAEEGHHHHHH | soluble |
| MSLELTVFSIGDWGEKTECLVNVTTKMGSLESAMNPKFIISVGDNFYQRGVKSVEDAAWTEILEEPFGKLSKHLKVHSCLGDHDWRGSTTAQIDRTNYANNTRWYLPGYWWYEKVTFTSEVSLPSLFEKSGLGEISANNSFHFNSSKTENSTSCEIDCLDEIVDNLNTMVNRNNSWNEDLSYKTSISEYFSEKQVNSTAVFIYIDSWTLTQDPFKKTSISYKYSQLEFIEQTLKAAVFENVDWIILVTHYSIYSSGLHGPHTRLASILMPLIKKYRVDFIISGHDHHSEILVPEDFNSYFQIVGASSKPRTSFGATDENSIFKSNTCSFASFTFSKDIAVSRIFSINSSLFSYFKRSNKFEREGHHHHHH | not soluble |
| MSLENFRSNVRKPTMSLQIAVEKVRWLAAGLLELNGCDADIAQDVAEHMIEAERYGFASHGVTLLPKYLENIARGDVTANARPECLTSEGNLQRFHAHNGFGQHAGKVAVNAAIEQAKRRGFCLLTLCHAHHLGRMGHYGQMVADQGLAMLAMSNVTGRPALVAPWGGAEPRMTTNPFCFAWPFSDGRPPILVDFATSSMALNKARVMSSTGKQAAPGQLIDAQGNPSNDPGVLFSNPPGALLPFGEHKGFGLALMIEMMAGILSGGDTIAEDHQTDGSAHNHLFALIIDPDQFTDLAGEKGQFFADYLLATQPQPGGNPVIYPGMPEAANRERNAKMITIPVSFWSWVVEHYARKGIDLGLHPQESALAEGHHHHHH | soluble |
| MSLENHHEAKTKLGQLWKLGNHYLLCGDATKLSDVEKLLQGKKANLVVTDPPYNVAVKSDNKELNESGREKIMNDDMSDEEFDQFLMSVFQNYSNAMRDDSAIYVFHGSSYQREFENSMNAAGIVVRSQCIWVKNNATFGWSQYRWQHEPVFYAHKKKQAPSWYGDRKQTTIWQDDLLEDLPATIWKVPRDDVATYYHPTQKPLSLIAIPVRNSSKRQDIVLDLFGGSGSTLMTCEQLNRICYTLELDPLFCDVIIERFEKSTGIIAELVEGHHHHHH | soluble |
| MSLEPKYQRILIKLSGEALAGEKGVGIDIPTVQAIAKEIAEVHVSGVQIALVIGGGNLWRGEPAADAGMDRVQADYTGMLGTVMNALVMADSLQHYGVDTRVQTAIPMQNVAEPYIRGRALRHLEKNRIVVFGAGIGSPYFSTDTTAALRAAEIEADAILMAKNGVDGVYNADPKKDANAVKFDELTHGEVIKRGLKIMDATASTLSMDNDIDLVVFNMNEAGNIQRVVFGEHIGTTVSNKVCDEGHHHHHH | soluble |
| MSLEPYAAKAHEGYLRNLMLRYSERHEQLMVNIVTSWYDKALMQALKERLEAAMPEQQMTLLNNVTTRKNTVATGEQEYVISGDGYVTERLGDLDFRISANSFFQTNTRQAETLYDQIIAVGGITPEDTVYDLYCGTGTITLYLARHCKQAIGIEVVESAVKDAEMNAELNGLSNTVFFQADLKNFHAMQEALEPYAKPRIIVTDPPRAGMHPKALDTMLKLQPERIVYVSCNPDNLARDGKEIAARGYRMTSAQPVDMFPQTNHIETVACFERAEGHHHHHH | not soluble |
| MSLEQGIAARKAEAESNASTKGESPDYPGQQVIWRLIQEAGESLRDELRTLAFTLHDHPEEAFEEVFATEEITKLLQNHGFEVQSGVYGVKTALETSFETPGYDPAQHPSIAILAEYDALPEIGHACGHNIIAAAGVGAFLAVTNMIKTAEVKGVDHLDFEGRIVLLGTPAEEGHSGKEYMIRNGAFDGIDASIMMHPFGFDLAEHVWVGRRTMTATFHGVSAHASSQPFMGKNALDAASLAYQGFGVLRQQMPPSDRLHAIITEGGNRPSIIPDTATMSLYVRSLLPEALKDISKRVDDVLDGAALMAGVGVEKQWDVHPASLPVRNNHVLARRWAKTQNLRGRTALSEGILPDTLAASTDFGNVSHLVPGIHPMVKISPENVALHTKEFAAYARTEEAIDAAVDAAIGLAQVAVDALADPQMLIDATLEFTNSGDVLKVGDYLAEGHHHHHH | soluble |
